Data on ten molecules can be found in patent publication US20250388881A1, “METHOD FOR IMPROVING THERMOSTABILITY OF PHYTASE, MUTANT AND USE” (priority 2022, published 2025).

In general, kcat/Km refers to the turnover number divided by the Michaelis constant. As usually defined, the Km is the substrate concentration at which the rate is half of its maximum. Broadly, the Vmax is the top rate of the reaction or transport when substrate is in excess. Usually kcat stands for the number of substrate molecules converted per active site and unit of time at saturation.

The target in data set [1] is Yersinia intermedia phytase APPAmut4 (SEQ ID NO: 1) mutant A147C/Y268C (Yersinia intermedia, UniProt Q000T0, A170C/A346L/M382L/V109D/Y291C/Y74E). Nature of the data set: Determination of dynamic parameters on sodium phytate: mutant A147C/Y268C. Particulars: 37° C., pH 5.5, sodium phytate 0.05 to 1.00 mM. The data set is classed as biochemical.
The target of data set [2] is Yersinia intermedia phytase APPAmut4 (parent), SEQ ID NO: 1 (Yersinia intermedia, UniProt Q000T0, A346L/M382L/V109D/Y74E). Nature of the data set: Determination of dynamic parameters on sodium phytate: phytase APPAmut4. Type of data set: biochemical. Particulars: 37° C., pH 5.5, sodium phytate 0.05 to 1.00 mM.
Data set [3] has as its target Yersinia intermedia phytase APPAmut4 (SEQ ID NO: 1) mutant G65R (Yersinia intermedia, UniProt Q000T0, A346L/G88R/M382L/V109D/Y74E). Nature of the data set: Determination of dynamic parameters on sodium phytate: mutant G65R. Type of data set: biochemical. To be noted: 37° C., pH 5.5, sodium phytate 0.05 to 1.00 mM.
Data set [4] deals with O=P(O)(O)O[C@H]1[C@H](OP(=O)(O)O)[C@@H](OP(=O)(O)O)[C@H](OP(=O)(O)O)[C@@H](OP(=O)(O)O)[C@H]1OP(=O)(O)O. As to the kind of experiment: Determination of dynamic parameters on sodium phytate: mutant G101C/V116C. The data set is classed as biochemical, Yersinia intermedia. Particulars: other: G101C/V116C, 37° C., pH 5.5, sodium phytate 0.05 to 1.00 mM.
For data set [5] the test system is unchanged. As to the kind of experiment: Determination of dynamic parameters on sodium phytate: mutant A57C/A103C. The data set is classed as biochemical, Yersinia intermedia. To be noted: other: A57C/A103C, 37° C., pH 5.5, sodium phytate 0.05 to 1.00 mM.
Data set [6] has the same test system. Nature of the data set: Determination of dynamic parameters on sodium phytate: mutant G365D. Type of data set: biochemical, Yersinia intermedia. Particulars: other: G365D, 37° C., pH 5.5, sodium phytate 0.05 to 1.00 mM.
Data set [7] has the same test system. Nature of the data set: Determination of dynamic parameters on sodium phytate: mutant E282L. Type of data set: biochemical, Yersinia intermedia. To be noted: other: E282L, 37° C., pH 5.5, sodium phytate 0.05 to 1.00 mM.
Data set [8] has the same test system. Nature of the data set: Determination of dynamic parameters on sodium phytate: mutant A147C/Y268C. The data set is classed as biochemical, Yersinia intermedia. Particulars: other: A147C/Y268C, 37° C., pH 5.5, sodium phytate 0.05 to 1.00 mM.
The test system is the same in data set [9]. As to the kind of experiment: Determination of dynamic parameters on sodium phytate: mutant R271C/E413C. Type of data set: biochemical, Yersinia intermedia. To be noted: other: R271C/E413C, 37° C., pH 5.5, sodium phytate 0.05 to 1.00 mM.
The test system is the same in data set [10]. Nature of the data set: Determination of dynamic parameters on sodium phytate: mutant R353C/L401C. The data set is classed as biochemical, Yersinia intermedia. To be noted: other: R353C/L401C, 37° C., pH 5.5, sodium phytate 0.05 to 1.00 mM.
Data set [11] has the same test system. Nature of the data set: Determination of dynamic parameters on sodium phytate: mutant G65R. The data set is classed as biochemical, Yersinia intermedia. Particulars: other: G65R, 37° C., pH 5.5, sodium phytate 0.05 to 1.00 mM.
The test system is the same in data set [12]. Nature of the data set: Determination of dynamic parameters on sodium phytate: phytase APPAmut4. Type of data set: biochemical, Yersinia intermedia. To be noted: other: APPAmut4, 37° C., pH 5.5, sodium phytate 0.05 to 1.00 mM.

Regarding `O=P(O)(O)O[C@H]1[C@H](OP(=O)(O)O)[C@@H](OP(=O)(O)O)[C@H](OP(=O)(O)O)[C@@H](OP(=O)(O)O)[C@H]1OP(=O)(O)O` [sodium phytate], the results for the kcat/Km in [1], in data set [2] and in [3] were 1.0823e+07 M⁻¹ s⁻¹, 1.2322e+07 M⁻¹ s⁻¹ and 9.009e+06 M⁻¹ s⁻¹, respectively.
For “Yersinia intermedia phytase APPAmut4 (SEQ ID NO: 1) mutant G101C/V116C (Yersinia intermedia; A346L/G124C/M382L/V109D/V139C/Y74E)”, in data set [4], the Km stood at 200 ± 30 µM, the Vmax was determined as 2930 µmol/min/mg, the kcat turned out to be 2230 ± 119 s⁻¹ and the kcat/Km came out at 1.11e+07 ± 1.13e+06 M⁻¹ s⁻¹.
Consider “Yersinia intermedia phytase APPAmut4 (SEQ ID NO: 1) mutant A57C/A103C (Yersinia intermedia; A126C/A346L/A80C/M382L/V109D/Y74E)”, for which, in data set [5], the Km was found to be 180 ± 30 µM, the Vmax came to 2840 µmol/min/mg, the kcat turned out to be 2160 ± 130 s⁻¹ and the kcat/Km amounted to 1.21e+07 ± 1.37e+06 M⁻¹ s⁻¹.
Turning to “Yersinia intermedia phytase APPAmut4 (SEQ ID NO: 1) mutant G365D (Yersinia intermedia; A346L/G388D/M382L/V109D/Y74E)”, in [6], the Km was found to be 140 ± 20 µM, the Vmax was found to be 2410 µmol/min/mg, the kcat came out at 1830 ± 58 s⁻¹ and the kcat/Km came to 1.32e+07 ± 1.15e+06 M⁻¹ s⁻¹.
On to “Yersinia intermedia phytase APPAmut4 (SEQ ID NO: 1) mutant E282L (Yersinia intermedia; A346L/E305L/M382L/V109D/Y74E)”, for which, in [7], the Km was 150 ± 20 µM, the Vmax came out at 2300 µmol/min/mg, the kcat is 1750 ± 67 s⁻¹ and the kcat/Km is 1.13e+07 ± 967000 M⁻¹ s⁻¹.
For the molecule “Yersinia intermedia phytase APPAmut4 (SEQ ID NO: 1) mutant A147C/Y268C (Yersinia intermedia; A170C/A346L/M382L/V109D/Y291C/Y74E)”, in [8], the Km is 220 ± 30 µM, the Vmax stood at 3140 µmol/min/mg, the kcat was determined as 2380 ± 124 s⁻¹ and the kcat/Km is 1.08e+07 ± 1.02e+06 M⁻¹ s⁻¹.
Take “Yersinia intermedia phytase APPAmut4 (SEQ ID NO: 1) mutant R271C/E413C (Yersinia intermedia; A346L/E436C/M382L/R294C/V109D/Y74E)”: in data set [9], the Km worked out at 180 ± 30 µM, the Vmax stood at 3180 µmol/min/mg, the kcat stood at 2410 ± 154 s⁻¹ and the kcat/Km was 1.34e+07 ± 1.54e+06 M⁻¹ s⁻¹.
In the case of “Yersinia intermedia phytase APPAmut4 (SEQ ID NO: 1) mutant R353C/L401C (Yersinia intermedia; A346L/L424C/M382L/R376C/V109D/Y74E)”, in [10], the Km came out at 200 ± 20 µM, the maximal velocity (Vmax) was 3400 µmol/min/mg, the kcat stood at 2580 ± 124 s⁻¹ and the specificity constant (kcat/Km) turned out to be 1.29e+07 ± 955000 M⁻¹ s⁻¹.
With “Yersinia intermedia phytase APPAmut4 (SEQ ID NO: 1) mutant G65R (Yersinia intermedia; A346L/G88R/M382L/V109D/Y74E)”, in [11], the Km came out at 220 ± 40 µM, the Vmax amounted to 2630 µmol/min/mg, the kcat was determined as 2000 ± 77 s⁻¹ and the kcat/Km came out at 9.01e+06 ± 992000 M⁻¹ s⁻¹.
For the molecule “Yersinia intermedia phytase APPAmut4 (parent), SEQ ID NO: 1 (Yersinia intermedia; A346L/M382L/V109D/Y74E)”, in data set [12], the Km came to 140 ± 30 µM, the Vmax is 2270 µmol/min/mg, the kcat worked out at 1720 ± 72 s⁻¹ and the kcat/Km was 1.23e+07 ± 1.58e+06 M⁻¹ s⁻¹.
